Tested on: MS2 coat protein
Assay: apparent KD of MS2 coat protein; designed switch direction (-1 OFF switch, 1 ON switch): -1; higher = weaker reporter binding
Summary of the method: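 On Illumina chips, designed RNA switches with common flanks were made by stalled E. coli RNA polymerase. Titrations with SNAP-549-labelled MS2 coat protein, doubling from 0.7 or 1.5 nM to 3 µM, were done with no input, with 200 uM small-molecule ligand, or with an oligonucleotide input. Apparent KD is the median per design over clusters, from curve fits of normalised cluster fluorescence.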

[1] = Eterna round: R95, input ligand: FMN 200 uM
[2] = Eterna round: R95, input ligand: microRNA oligo, concentration not stated
[3] = Eterna round: R95, input ligand: none
[4] = input ligand: microRNA oligo, concentration not stated

| Sequence | apparent KD of MS2 coat protein (input ligand: FMN 200 uM) [nM] | apparent KD of MS2 coat protein (input ligand: none) [nM] | apparent KD of MS2 coat protein [1] [nM] | apparent KD of MS2 coat protein [2] [nM] | apparent KD of MS2 coat protein [3] [nM] | apparent KD of MS2 coat protein [4] [nM] |
| --- | --- | --- | --- | --- | --- | --- |
| AAUCCUGAAGUUAGGAUAUGAAGUAUCACUGCACUUCAGAAGGGACUUGAGGAUCACCCAAGUAGCCGUGAGGG [salish99_bmod_ex4_r4_001] (Eterna round: R97, puzzle: Brourd's mod of Exclusion 4) | 161 | 47.5 |  |  |  |  |
| GGUUGGCGAGGAUAUACAUGAGGAUCACCCAUGUGAUAGAAAAAAGUGAGGAAGAAAAGUAGAAGGCGCUGACG [salish99_ex3_r3_009] (puzzle: Exclusion 3) |  |  | 723 | 50.1 | 187 |  |
| UUUUACAUGCUGAGAUCCUACAUGAGGAUCACCCAUGUGGUCCGGUGACUUUUGUCACCGGAUUUUGCUCGUCUUGU [salish99_S_TOV1_R5_101] (Eterna round: R97, puzzle: Sensor, turn-off variant 1) | 84.8 | 108 |  |  |  |  |
| GCAGUGCGAGGAUAUACAUGAGGAUCACCCAUGUGAGAAUAAGAAGUGAGGAAGAAAAGUAGAAGGCGCGUUGG [Mat - Exclusion 3 - Mod of Salish D66] (Eterna round: R96, puzzle: Exclusion 3) | 103 | 52.6 |  |  |  | 49.5 |
| AGAAAUGCCCAUGGCCGCAAGCCUUUUGCUUGUCUUACCACAUGAGGAUCACCCAUGUGACAUGGGCUCCUUAUAAU [Verileve] (puzzle: Sensor v3, turn-off variant 2) |  |  | 14 | 9.2 | 12.5 |  |
| GUCGUGCGGCUUUGCUGUGCGAGUACAUGAGGAUCACCCAUGUAGGAUAUGGUACGCUUUGCGUGCCAGAAGGGCGUGCGUUGG [salish99_ExNG3_r04_007] (Eterna round: R96, puzzle: Exclusion NG 3) | 38 | 35.4 |  |  |  | 28.6 |
| UAUUAGCAAGCAAGAUCCCACAUGAGGAUCACCCAUGUGCUCGUCUUAAGCCCAGAAUUACUGGGCGCUCGUCUUAU [Winner reversed engineered 22] (Eterna round: R97, puzzle: Sensor, turn-off variant 1) | 30.3 | 28.4 |  |  |  |  |
| ACCAUAGAUGUAGGAUAUCCAUGAAGAUAACAAGGAGAAGGACAUGAGGAUCACCCAUGUAAGUAUUAUGAAUGUAGCGACAGC [Meechl Ex NG1] (Eterna round: R96, puzzle: Exclusion NG 1) | 82.1 | 59.5 |  |  |  | 34 |
| AGACAGUCAGGAUAUACAUGAGGAUCACCCAUGUUGAGAUGAGAAAGGGCAGGAAGAGGUAGAAGGGACAAGAA [JR_Exclu3_Sub035] (puzzle: Exclusion 3) |  |  | 28.3 | 19.2 | 24.8 |  |
| CCGAGGUAGCGGUCCUAUGACAUGAGGAUCACCCAUGUACCUCGCUACGAGCUUUUUGCUCGUCUUAAAAUUCUCGG [Mat - Sensor v3 - turn-off var 1 - JL Mod - D29] (puzzle: Sensor v3, turn-off variant 1) |  |  | 47 | 156 | 54 |  |
| CCUCAGGCGGAGGAUAUCUAACAACAAUAACAAAGAGAAGGCCGCACAUGAGGAUCACCCAUGUGUAUGGGCCG [Bitierre] (puzzle: Exclusion 6) |  |  |  | 13.1 |  |  |
| GUCCUACAUGAGGAUCACCCAUGUAAGGAUAUGCUAGCGGUCGGAAGACUGACUGCUAGCAGAAGGUACAUGAU [Mat - Mod of JL D79] (puzzle: Exclusion 1) |  |  |  | 13.9 |  |  |
| UAUUUAUAUGAAGGAUAUACUUAACAUGAGGAUCACCCAUGUGGUGUUGUGAGUGAGUGAGUUUAGUAGAAGGUCAAUGAUUUU [JMF's solution 74] (Eterna round: R96, puzzle: Exclusion NG 2) | 870 | 311 |  |  |  | 286 |
| GUCCUCAUGACAUGAGGAUCACCCAUGUAUUAUUUGUUAACUGAGGAUAUACUCUUAUUUUUUAUGUAGAAGGCAGAUUUGUUC [JR_ExcNG3_Sub021] (Eterna round: R96, puzzle: Exclusion NG 3) | 43.1 | 31.2 |  |  |  | 27.7 |
| AGAUGUAGAUACCGAUCCUACAUGAGGAUCACCCAUGUAGCUAGACGUGCACGCGUAGCUCGUCAGACUACCAGAAG [salish99_TOv1_r3_085] (puzzle: Sensor v3, turn-off variant 1) |  |  | 292 | 147 | 223 |  |
| UAUUAACAAGUAAGAUCCCACAUGAGGAUCACCCAUGUUCGUCUUAUAGGUACUGUGACACAAAGUGUCACGGUACC [Mod of Eli's R95 Sensor 3, v1 - 87] (Eterna round: R97, puzzle: Sensor, turn-off variant 1) | 36.9 | 44.9 |  |  |  |  |
| UUAACAUGCUGGUGAUCAUACAUGAGGAUCACCCAUGUAACAAGCUUUUUGCUCGUCUUAUAAGAUUACUAGUAUGU [Stov1/10-A1] (Eterna round: R97, puzzle: Sensor, turn-off variant 1) | 24.2 | 26.4 |  |  |  |  |

| Sequence | apparent KD of MS2 coat protein (input ligand: FMN 200 uM) [nM] | apparent KD of MS2 coat protein (input ligand: none) [nM] | apparent KD of MS2 coat protein [1] [nM] | apparent KD of MS2 coat protein [2] [nM] | apparent KD of MS2 coat protein [3] [nM] | apparent KD of MS2 coat protein [4] [nM] |
| --- | --- | --- | --- | --- | --- | --- |
| GCAAGCUUUUUCGUGGGUGACAUGAGGAUCACCCAUGUUUGCCACGUCUUGUGGGCCCGGGCCCGCGGCCCGGGCCC [-44.9, -65.2, A 12%] (Eterna round: R97, puzzle: Sensor, turn-off variant 1) | 54.6 | 67.6 |  |  |  |  |
| UUUUGCACGCUGCGGUCCUACAUGAGGAUCACCCAUGUGGUCUGGUGGCGUGGGUCGCCGGACUUGGCUCGUCUUGG [salish99_S_TOV1_R5_035] (Eterna round: R97, puzzle: Sensor, turn-off variant 1) | 15.5 | 14.9 |  |  |  |  |
| CUGAGGUAGCGGUCCUAUGACAUGAGGAUCACCCAUGUACCUUGCUUUGAGCUAAUUGCUCGUCUUAUGAUUCUCGG [Mat - Sensor v3 - turn-off var 1 - JL Mod - D45] (puzzle: Sensor v3, turn-off variant 1) |  |  | 500 | 457 | 479 |  |
| CUUUUGGCAGGAUAUGCUUUUUUUGACAUGAGGAUCACCCAUGUGAUGCAGUUUGGGUUUGCAGAAGGGCCUGAGU [JR_E5_Sub035] (puzzle: Exclusion 5) |  |  |  | 101 |  |  |
| AAUAAUGAUAAGGAUAUCACUAGCUUCGGCUAGUGAGAAGGUAUCACAUGAGGAUCACCCAUGUGUUCCAAUAA [Ex6/6-A1] (Eterna round: R97, puzzle: Exclusion 6) | 38.1 | 18 |  |  |  |  |
| AGGUAACAUGAGGAUCACCCAUGUCAGGAUAUCAUGAAGAGUAGAUUAGAGGAGAGGUUGAGAAGGGACUAUAU [Excluse me! 15 - Jieux - Exclusion 1] (puzzle: Exclusion 1) |  |  |  | 38.5 |  |  |
| UCGAGGUCAGGAUAUACAUGAGGAUCACCCAUGUUGAGAUAAGGUAGGAAAAGAGUAGGUAGAAGGGACGAGAG [JR_Exclu3_Sub047] (puzzle: Exclusion 3) |  |  |  | 27.3 |  |  |
| GCGAAAACAAGCAAGUGAAACAUGAGGAUCACCCAUGUCCUCAUUUGCUCGUCUUAUAAAAGCUAUCGAAAGAUAGC [Mat - Sensor v3 - turn-off var 1 - Eli Mod - D49] (puzzle: Sensor v3, turn-off variant 1) |  |  | 9.41 | 205 | 9.78 |  |
| GUCAGCUCGUGAGGAUAUACAUGAGGAUCACCCAUGUGAUCAAUAGCAGCUUCGGCUGCAUACAUGUAGAAGGCACGAGCUGAU [ENG2/6-A2] (Eterna round: R96, puzzle: Exclusion NG 2) |  |  |  |  |  | 27.5 |
| UGCGAGUAAGGAUAUUCGCGACCGUUCACAAGAACGGUCGAGAAGAAGGUACUUGAGGAUCACCCAAGUCCUAG [Leonxegece] (Eterna round: R97, puzzle: Exclusion 4) | 103 | 24.2 |  |  |  |  |
| UCAUACGAUGAGGAUAUCUCAGUUAAAGUAUUUAGAGAAGGCGUUACAUGAGGAUCACCCAUGUUUAUGGGCAU [Ex-6 Malc#7] (puzzle: Exclusion 6) |  |  | 178 | 121 | 190 |  |
| AACCGGCGGACCGAAGCUUUUUGCUUGUUUUAUACUACAACAUGAGGAUCACCCAUGUGGUGGUGGUCCGUUGUAGA [Bitein] (puzzle: Sensor v3, turn-off variant 2) |  |  | 47.9 | 16.1 | 52.9 |  |
| CAGGAUAGAGGAUAUACAUAGAUACAGAUUCAUAUAAUCCUACAUGAGGAUCACCCAUGUAGAAGGCUAUCCUG [Fiskers Ex 2 - 25] (puzzle: Exclusion 2) |  |  |  | 14.5 |  |  |
| GUGAAACAUGAGGAUCACCCAUGUGAGGAUAUGAUUUAGUAAUGGAGACAGUACAUAUUCAGAAGGCACAAUGG [Mat - Mod of JL D76] (puzzle: Exclusion 1) |  |  | 55.2 | 150 | 182 |  |
| GAGUAGUAAGGAUAUGUCUCUGGUGGCUACGGUCACUAGAGGCAGAAGGUACAUGAGGAUCACCCAUGUUCCUC [ExDelusion 8 - Jieux - Exclusion 4] (Eterna round: R97, puzzle: Exclusion 4) | 186 | 55.8 |  |  |  |  |
| AGUAGGUCUACCUUGGUGGAUCUGCAUAAUGCAAGUGUUACAUGAGGAUCACCCAUGUCCUCAUUUGCUCGUCUUAU [JL turnoff v2 99.22] (puzzle: Sensor v3, turn-off variant 2) |  |  | 39.4 | 105 | 43.5 |  |

— the supplement of paper PMC9170038
